Publication doi:10.1101/2021.04.13.439655

Molecular target: full-length Smad2, wild type (S2FLWT), Q15796
Assay: SAXS with ensemble optimization method
Details: remark: other sources report otherwise

B1: full-length Smad2, wild type (S2FLWT), Q15796 1-467 (natural protein)
chain: MSSILPFTPPVVKRLLGWKKSAGGSGGAGGGEQNGQEEKWCEKAVKSLVKKLKKTGRLDELEKAITTQNCNTKCVTIPSTCSEIWGLSTPNTIDQWDTTGLYSFSEQTRSLDGRLQVSHRKGLPHVIYCRLWRWPDLHSHHELKAIENCEYAFNLKKDEVCVNPYHYQRVETPVLPPVLVPRHTEILTELPPLDDYTHSIPENTNFPAGIEPQSNYIPETPPPGYISEDGETSDQQLNQSMDTGSPAELSPTTLSPVNHSLDLQPVTYSEPAFWCSIAYYELNQRVGETFHASQPSLTVDGFTDPSNSERFCLGLLSNVNRNATVEMTRRHIGRGVRLYYIGGEVFAECLSDSAIFVQSPNCNQRYGWHPATVCKIPPGCNLKIFNNQEFAALLAQSVNQGFEAVYQLTRMCTIRMSFVKGWGAEYRRQTVTSTPCWIELHLNGPLQWLDKVLTQMGSPSVRCSSMS
For B1, the percent of the population as dimer at 56 μM was 18%, the percent of the population as trimer at 13.8 μM was 1% and the percent of the population as trimer at 56.1 μM was 16.4%.
